Here are results for 139 substances from the supplement of paper PMC12042874.

± gives the uncertainty stated by the source.

A short description of this data set: amyloid nucleation score (Sup35N fusion, yeast selection) (log enrichment); library NNK2; higher = more nucleation; inactive = no reads after selection. The method, boiled down: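 Plasmid inserts were Illumina-sequenced at input and output from psi-negative yeast expressing Sup35N fused to peptides of 20 random codons. The yeast were induced with 100 μM copper sulfate for 24 hours and grown 7 days at 30°C on medium lacking adenine and uracil, and sequences with under 100 input reads were excluded. Nucleation score is the DiMSum log enrichment of output over input reads, centred on the mode score of non-aggregating sequences.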
In turn, LLSQKRGCHVSGHIGVEA had an amyloid nucleation score of -0.218 ± 0.31.

The substance YGVGMVWMVIECEEVGYVRR showed an amyloid nucleation score of 0.683 ± 0.16.

As to LFMFGFGIL, the amyloid nucleation score stood at 0.05 ± 0.42.

LIKVVVMS showed an amyloid nucleation score of 1.04 ± 0.42.

TNLFVSLPQPSVVKSSGSLQ gave an amyloid nucleation score of 0.212 ± 0.31.

In the case of TAFVSHL, the amyloid nucleation score was -0.288 ± 1.1.

For the substance KVSVTMHLAKMDFCRLWG, the amyloid nucleation score is 7.11 ± 0.046.

GHMLLFTFFR registered an amyloid nucleation score of 5.965 ± 0.035.

In turn, GGIRYVSVFQIFASCCFSRV gave an amyloid nucleation score of 8.977 ± 0.05.

CKTTQDSDITCK showed an amyloid nucleation score of -0.747 ± 0.79.

Consider YSGRREILYHNRVSPHCMNL, for which the amyloid nucleation score is 2.64 ± 0.12.

On to EQKGSVTYCGYKMSDV, for which the amyloid nucleation score was found to be 4.97 ± 0.062.

Substance SDTFS showed an amyloid nucleation score of 0.68 ± 0.56.

NNSHPRNKLSWIVRLCVKLI: the amyloid nucleation score entry is “inactive”.

On to ERSNFWPRVQTPCESVA, for which the amyloid nucleation score came to 0.016 ± 1.1.

In the case of WSEVGWFIYDKFREFVFSIK, the amyloid nucleation score entry is “inactive”.

PIVLAK gave an amyloid nucleation score of -0.672 ± 0.79.

NLRVAALAEGPRVNYRVSGW: the amyloid nucleation score was determined as 0.69 ± 0.43.

In the case of TERLICMRTSMPSFIYVFWD, the amyloid nucleation score was -0.847 ± 0.54.

Substance DVRVISNDNAWDDLRLYFDK showed an amyloid nucleation score of 0.36 ± 0.3.

Substance RANKYVASRFVITFKVACFE registered an amyloid nucleation score of 0.092 ± 1.1.

Take LLEVGSKKCGHPLSTYSKAN: the amyloid nucleation score turned out to be 0.463 ± 0.48.

On to YDEYF, for which the amyloid nucleation score result is “inactive”.

As for FLLRVSSSTKTRRSSGVDL, the amyloid nucleation score was determined as 3.69 ± 0.095.

Consider EMVRTTMSWPYMFS, for which the amyloid nucleation score is -0.47 ± 1.1.

Consider PDFKNLSYWLSVDTMPSRWV, for which the amyloid nucleation score result is “inactive”.

In the case of GMADWNWFFPILFDPMGTGL, the amyloid nucleation score is -0.357 ± 0.49.

As for VWNSIDTIYIYRHNYGFFYF, the amyloid nucleation score came to 0.751 ± 0.36.

YQNIVIRLLVLCYNVTDGLV: the amyloid nucleation score amounted to 3.02 ± 0.14.

Consider MAACCHKLWLTCFDTVRMFN, for which the amyloid nucleation score was -0.478 ± 0.41.

Take TNSRRCSYSLTPPSGTNRCQ: the amyloid nucleation score is -0.053 ± 0.54.

For DIIVYM, the amyloid nucleation score entry is “inactive”.

Regarding RMTSHCMNSLIWQKNHGMRV, the amyloid nucleation score is -0.348 ± 0.65.

Regarding PMISKVCHILKRVEPSWGMR, the amyloid nucleation score is -0.199 ± 1.1.

Consider PIGRSCIYHKWE, for which the amyloid nucleation score worked out at 1.98 ± 0.18.

Substance QLFTWILVAPKLPCWF gave an amyloid nucleation score of 6.36 ± 0.086.

With IIVFV, the amyloid nucleation score is 0.086 ± 0.74.

In turn, VRYMLRTLEYMSRVGCSISH yielded an amyloid nucleation score of 0.101 ± 0.76.

For ILIIRLKFLVIVAITSTGSD, the amyloid nucleation score entry was “inactive”.

Take HCIMYSTLRHRVWSGRLDGS: the amyloid nucleation score came out at 3.86 ± 0.089.

For VSENDGVRACCLS, the amyloid nucleation score was 0.474 ± 0.44.

In turn, QTSLSTMMYLPCH gave an amyloid nucleation score of 0.7 ± 0.49.

LYPSFEDTLRWPSPRGMKMC came in with an amyloid nucleation score of 0.182 ± 1.1.

Take LAQPCQE: the amyloid nucleation score is -0.033 ± 0.55.

NCSSMFCIICKKCCVDAFIL showed an amyloid nucleation score of 3.73 ± 0.048.

VPLTPLGENTECLSRARDIT: the amyloid nucleation score came out at 0.826 ± 0.45.

In turn, GEQVWCVGCPYVRWNSLHAG came in with an amyloid nucleation score of 8.756 ± 0.037.

In turn, FSRTTAHMTLDMYFTGRDGY showed an amyloid nucleation score of 5.79 ± 0.058.

For WQHGVRSGQQECPRLEGNRV, the amyloid nucleation score is 0.379 ± 0.23.

Regarding SGMWSNRDEALSCWRG, the amyloid nucleation score was 0.29 ± 0.54.

Regarding NSVCSTLKHLSNLGSIDIQH, the amyloid nucleation score was -0.363 ± 1.1.

Take TCLRSIVVVFLALGLDSFFW: the amyloid nucleation score is -0.177 ± 0.3.

DRVQG yielded an amyloid nucleation score of 1.2 ± 0.22.

Substance SRTIGTMQLVTMNWCFRKEA had an amyloid nucleation score of 5.37 ± 0.045.

WIWEKSHWSENISMVRCDVS displayed an amyloid nucleation score of 0.379 ± 0.55.

Regarding YYTFFNKRYNRWCMMNLNLT, the amyloid nucleation score result is “inactive”.

CNCQMGDVLEGLGDVGLNNF returned an amyloid nucleation score of -1.65 ± 0.62.

ILLINCMFNQYSGC displayed an amyloid nucleation score of 7.894 ± 0.075.

Turning to TFNVYTVSLDVCDYRGGHGL, the amyloid nucleation score was 6.602 ± 0.049.

Turning to TNCSYMMYAAKVSQKYPPFP, the amyloid nucleation score is -0.567 ± 1.1.

As for LIRVYRKVGLVTLLHGMNRM, the amyloid nucleation score turned out to be 0.039 ± 0.32.

On to YPVLN, for which the amyloid nucleation score is -0.834 ± 0.49.

For the substance NARWKDVYHPLTYCFVNLWT, the amyloid nucleation score was 8.115 ± 0.034.

As for RESGLRFNNYMMRWLHGGRV, the amyloid nucleation score was -0.072 ± 0.29.

With KCWLLGHWEDFCTLSKMERN, the amyloid nucleation score result is “inactive”.

VKWKLGLTWMVVIIDGVLCV returned an amyloid nucleation score of 0.963 ± 0.35.

SGLEEYLSHLMLQVRFQESR had an amyloid nucleation score of 0.432 ± 0.57.

For the substance LYPCNLELVQQHFLVMTNLG, the amyloid nucleation score was -0.034 ± 0.23.

In the case of KVYSKCFNGFRS, the amyloid nucleation score came out at 0.164 ± 0.8.

As to TINTAMWTWSITETLPYCTW, the amyloid nucleation score is 4.03 ± 0.06.

Consider GFHQFPVDVVALGWSILRCF, for which the amyloid nucleation score was -0.075 ± 0.31.

Substance MIQHEKQMWWADNSYP showed an amyloid nucleation score of 0.483 ± 0.24.

On to TEVGCYFYTWRICIYNDTRA, for which the amyloid nucleation score stood at 2.28 ± 0.11.

Substance NFNGYM displayed an amyloid nucleation score of -1.09 ± 0.3.

Turning to IVFSDLTITF, the amyloid nucleation score came out at 3.29 ± 0.11.

SEWSRDRKRVKVSHFA: the amyloid nucleation score is 0.465 ± 0.17.

With EITEDSMVLVRWSGARNFHM, the amyloid nucleation score was found to be 2.56 ± 0.15.

RGGRSVRTVNWPSYMMSVPD returned an amyloid nucleation score of -0.076 ± 0.3.

Substance PYIWYPISECRGSSSFETYA came in with an amyloid nucleation score of 0.29 ± 0.74.

SLDQFSLSPKAVQRVACVAQ gave an amyloid nucleation score of 0.251 ± 0.54.

In the case of SIIWQRLLGIFNFLGAPESM, the amyloid nucleation score result is “inactive”.

As for YEGNFAHCFSLGPDHVID, the amyloid nucleation score was -0.202 ± 1.1.

SSMERCEHLQVLEAFLWSVE displayed an amyloid nucleation score of 1.87 ± 0.16.

In turn, CFFFISAVGPEILIVGFLGV gave an amyloid nucleation score of -0.684 ± 1.

Turning to HNLEWKNRNQTWSSLTPIVW, the amyloid nucleation score stood at 0.384 ± 0.44.

WQENFSHCNLSMLCEVNLSK returned an amyloid nucleation score of -0.44 ± 0.49.

The substance LKNLGYNMSPMYHWHCSSSK registered an amyloid nucleation score of -0.003 ± 1.1.

Regarding CQCSVSVGNTDSHNLPKVYV, the amyloid nucleation score is -0.221 ± 1.1.

Turning to RSFIGDNYISLRC, the amyloid nucleation score is -0.184 ± 0.29.

Consider MWRFRPLRSDTLRYDGSMGC, for which the amyloid nucleation score is -0.021 ± 0.76.

Turning to AWMRDLCSVYRCVGCDLLWA, the amyloid nucleation score turned out to be 6.25 ± 0.081.

As to HISYVNSSRL, the amyloid nucleation score is 4.05 ± 0.078.

For the substance NHWWIHYDDLLLAHDFLHLW, the amyloid nucleation score amounted to 0.055 ± 0.42.

In the case of TANLKDSGQSYFKTRSVWTF, the amyloid nucleation score entry is “inactive”.

For RYPIVRTDMYIIVKFI, the amyloid nucleation score is 0.509 ± 0.81.

FLGCYGLNCVSWKGMMSTPL: the amyloid nucleation score was determined as 4.31 ± 0.072.

The substance PWETRSNA registered an amyloid nucleation score of -0.012 ± 0.46.

Turning to QDTFYEWCKNVHVLHTRFGV, the amyloid nucleation score stood at 0.905 ± 0.47.

With AWHIPLTCGLHVIFLGR, the amyloid nucleation score entry is “inactive”.

EKVNLSTSCRVA had an amyloid nucleation score of 0.664 ± 0.34.

As for IVLQSGR, the amyloid nucleation score is -1.12 ± 0.63.

The substance LTHQRRRLMMCI registered an amyloid nucleation score of 0.283 ± 0.32.

LSVTGDTWRMVSRYSHECKD: the amyloid nucleation score amounted to 0.859 ± 0.52.

As for WESRLLEYLCTDVNTME, the amyloid nucleation score is -0.553 ± 0.48.

On to YFCCVSTIARSMFLSRGSGR, for which the amyloid nucleation score was found to be 8.771 ± 0.058.

FYLSAFRHVMRASCLDDLSK: the amyloid nucleation score result was “inactive”.

Consider CLVWLDI, for which the amyloid nucleation score was -1.11 ± 0.55.

HIRFYVLSRNRSASNISIFT: the amyloid nucleation score stood at 3.09 ± 0.054.

Consider RSSRHLDAYIEAS, for which the amyloid nucleation score stood at 0.877 ± 0.28.

LVLYVSKMPYMSEPRSIILR had an amyloid nucleation score of 0.64 ± 0.58.

VRVHCLHLVYYYSQCPRYNN showed an amyloid nucleation score of -0.277 ± 1.1.

Regarding IPGSS, the amyloid nucleation score was -0.137 ± 0.54.

The substance HVLSLGAGWKYVGVDECKE yielded an amyloid nucleation score of 0.317 ± 0.31.

In the case of NELEHVFLMRYKC, the amyloid nucleation score result was “inactive”.

With MLFNLYISTSTLVDRS, the amyloid nucleation score came out at 1.23 ± 0.17.

As for THYTDIIFFQEGLY, the amyloid nucleation score result is “inactive”.

CKKKSRTDCMLSFCVCFDGV came in with an amyloid nucleation score of 7.276 ± 0.035.

ICCGVEHWYVIGFNVGSFYF displayed an amyloid nucleation score of 7.964 ± 0.039.

As to EFLLYRTSVP, the amyloid nucleation score is -0.205 ± 0.76.

VWVSSIDMGLFVANLCETAS came in with an amyloid nucleation score of -0.074 ± 1.1.

For the substance QCFSLGGWVCFVIDVC, the amyloid nucleation score stood at 9.476 ± 0.079.

The substance LWGMGGAWEPERETLVV returned an amyloid nucleation score of -0.268 ± 0.63.

Turning to DNNTIWD, the amyloid nucleation score worked out at 0.94 ± 0.23.

Consider CLNTLFVEFRCLSMGACCGI, for which the amyloid nucleation score worked out at 1.1 ± 0.31.

ALIRFCTSW returned an amyloid nucleation score of 0.588 ± 0.16.

In the case of FERLNYQLREFYKVIKFSCV, the amyloid nucleation score entry is “inactive”.

RGRTGRCSAFSQSILNGLRA registered an amyloid nucleation score of -0.181 ± 0.63.

Turning to WGSEAHTDRVVQYWILALQR, the amyloid nucleation score came to 1.19 ± 0.12.

The substance YTMMRFGPPPFETFVVKYGL gave an amyloid nucleation score of 1.42 ± 0.35.

Turning to RVMEYEILLIFCI, the amyloid nucleation score worked out at 0.135 ± 0.65.

WSVVLWDVEGYWASASSQLW showed an amyloid nucleation score of 0.907 ± 0.35.

With GFLYR, the amyloid nucleation score is -1.23 ± 0.3.

In turn, MCGKFNTSSCIEIYRDSEFM gave an amyloid nucleation score of -0.432 ± 0.23.

The substance FNDLMYVNYLLCMVH yielded an amyloid nucleation score of 4.04 ± 0.095.

Turning to RVGCLWFRLYPLYSGFMRSR, the amyloid nucleation score is -1.08 ± 1.

Substance CSNYQRYTILVYPTRSYGCL gave an amyloid nucleation score of 0.558 ± 0.6.

GRVFIASLIARTDPPKLVFK showed an amyloid nucleation score of 1.67 ± 0.083.

YYLYWHFKIYWRQHLVNAFN registered an amyloid nucleation score of -1 ± 1.1.

For LYMAFREMQSWQHCW, the amyloid nucleation score was -0.227 ± 0.49.
